In patent US20200230168, “NUCLEIC ACID OLIGOMERS AND USES THEREFOR” (Queensland University of Technology, published 2020):

What follows are binders tested against hSSB1 (Homo sapiens, UniProt Q9BQ15 Q9BQ15:1-211) (assay: SPR; LSA_In3E3 = 1).
Sequence of hSSB1 (Q9BQ15 whole entry, one chain of several): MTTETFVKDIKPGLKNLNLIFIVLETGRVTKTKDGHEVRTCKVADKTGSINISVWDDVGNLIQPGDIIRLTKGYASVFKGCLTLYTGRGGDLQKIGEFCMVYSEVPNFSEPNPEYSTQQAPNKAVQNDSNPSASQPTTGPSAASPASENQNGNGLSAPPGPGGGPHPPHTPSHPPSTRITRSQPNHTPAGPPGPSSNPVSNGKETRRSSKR

Binder	binding signal
CAGAGGCAGCAGUACGACGG (ssRNA, PS all, no sugar modification) [LSA_ATG PS only (DKLS577569)]	1.44 normalized Rmax
UGAGCCGGACUUGCCU (ssRNA, 2'-OMe all, PS all) [In3E3 5' truncation 16 nt]	0.48 normalized Rmax
CCAGUGAGCCGG (ssRNA, 2'-OMe all, PS all) [In3E3 3' truncation 12 nt]	0.24 normalized Rmax
CAGAGGCAGCAGUACGACGGCAGAGGCAGC (ssRNA, 2'-OMe all, PS all) [LSA_ATG 30-mer (DKLS428543)]	1.89 normalized Rmax
CUCAUUCCUACCGACACCCC (ssRNA, 2'-OMe all, phosphodiester, ZEN at both ends) [Neg_C ZEN (DKLS789189)]	0.09 normalized Rmax
CCAGUGAGCCGGACU (ssRNA, 2'-OMe all, PS all) [In3E3 3' truncation 15 nt]	0.36 normalized Rmax
AGCCGGACUUGCCU (ssRNA, 2'-OMe all, PS all) [In3E3 5' truncation 14 nt]	0.3 normalized Rmax
CAGAGGCAGCAGUACGACGG (ssRNA, 2'-OMe all, PS three at each end) [LSA_ATG 2'-OMe PS ends (DKLS286198)]	0.17 normalized Rmax
CCAGUGAGCUGGACUUGCCU (ssRNA, 2'-OMe all, PS all) [In3LSA_CU]	0.97 normalized Rmax
AGGCAAGUCCGGCUCACUGG (ssRNA, 2'-OMe all, PS all) [RevIn3LSA (DKLS481254)]	0.82 normalized Rmax
GUGAGCCGGACUUGCCU (ssRNA, 2'-OMe all, PS all) [In3E3 5' truncation 17 nt]	0.83 normalized Rmax
CAGAGGCAGCAGUACGACGG (ssRNA, 2'-OMe all, PS all) [LSA_ATG]	1.1 normalized Rmax
AGUGAGCCGGACUUGCCU (ssRNA, 2'-OMe all, PS all) [In3E3 5' truncation 18 nt]	0.84 normalized Rmax
GUGCAUGGAAUCACGGAGUG (ssRNA, PS all, no sugar modification) [Open_A PS only (DKLS669778)]	1.3 normalized Rmax
CCAGUGAGCCGGACUU (ssRNA, 2'-OMe all, PS all) [In3E3 3' truncation 16 nt]	0.4 normalized Rmax
CCAGUGAGCCGGACUUGCCU (ssRNA, 2'-OMe all, PS three at each end) [In3E3 2'-OMe PS ends (DKLS621499)]	0.12 normalized Rmax
GGACUUGCCU (ssRNA, 2'-OMe all, PS all) [In3E3 5' truncation 10 nt]	0.07 normalized Rmax
CCAGUGAGCCGGAC (ssRNA, 2'-OMe all, PS all) [In3E3 3' truncation 14 nt]	0.35 normalized Rmax
CAGUGAGCCGGACUUGCC (ssRNA, 2'-OMe all, PS all) [In3E3 both-end truncation 18 nt]	0.91 normalized Rmax
CCAGUGAGCC (ssRNA, 2'-OMe all, PS all) [In3E3 3' truncation 10 nt]	0.11 normalized Rmax
AGUGAGCCGGACUUGC (ssRNA, 2'-OMe all, PS all) [In3E3 both-end truncation 16 nt]	0.71 normalized Rmax
CCAGUGAGCCGGACUUGCCU (ssRNA, 2'-OMe all, phosphodiester, ZEN at both ends) [In3E3 ZEN (DKLS991101)]	0.17 normalized Rmax
CAGUGAGCCGGACUUGCCU (ssRNA, 2'-OMe all, PS all) [In3E3 5' truncation 19 nt]	0.92 normalized Rmax
UGAGCCGGACUU (ssRNA, 2'-OMe all, PS all) [In3E3 both-end truncation 12 nt]	0.2 normalized Rmax
GUGAGCCGGACUUG (ssRNA, 2'-OMe all, PS all) [In3E3 both-end truncation 14 nt]	0.45 normalized Rmax
GAGCCGGACUUGCCU (ssRNA, 2'-OMe all, PS all) [In3E3 5' truncation 15 nt]	0.4 normalized Rmax
CUCAUUCCUACCGACACCCC (ssRNA, 2'-OMe all, phosphodiester) [Neg_C 2'-OMe PD (DKLS341370)]	0.37 normalized Rmax
CGUGUCAUCCGCUCUCGACU (ssRNA, 2'-OMe all, PS all) [LSA_In3E3_CT4]	0.8 normalized Rmax

These binders were tested against THOC4 (ALYREF) (UniProt Q86V81 Q86V81:2-257) (assay: SPR; LSA_In3E3 = 1).

Binder	binding signal
CAGAGGCAGCAGUACGACGG (ssRNA, PS all, no sugar modification) [LSA_ATG PS only (DKLS577569)]	1.03 normalized Rmax
UGAGCCGGACUUGCCU (ssRNA, 2'-OMe all, PS all) [In3E3 5' truncation 16 nt]	0.24 normalized Rmax
CCAGUGAGCCGG (ssRNA, 2'-OMe all, PS all) [In3E3 3' truncation 12 nt]	0 normalized Rmax
CAGAGGCAGCAGUACGACGGCAGAGGCAGC (ssRNA, 2'-OMe all, PS all) [LSA_ATG 30-mer (DKLS428543)]	1.21 normalized Rmax
CUCAUUCCUACCGACACCCC (ssRNA, 2'-OMe all, phosphodiester, ZEN at both ends) [Neg_C ZEN (DKLS789189)]	0.03 normalized Rmax
CCAGUGAGCCGGACU (ssRNA, 2'-OMe all, PS all) [In3E3 3' truncation 15 nt]	-0.09 normalized Rmax
AGCCGGACUUGCCU (ssRNA, 2'-OMe all, PS all) [In3E3 5' truncation 14 nt]	0.09 normalized Rmax
CCAGUGAGCUGGACUUGCCU (ssRNA, 2'-OMe all, PS all) [In3LSA_CU]	0.54 normalized Rmax
AGGCAAGUCCGGCUCACUGG (ssRNA, 2'-OMe all, PS all) [RevIn3LSA (DKLS481254)]	0.76 normalized Rmax
GUGAGCCGGACUUGCCU (ssRNA, 2'-OMe all, PS all) [In3E3 5' truncation 17 nt]	0.23 normalized Rmax
CAGAGGCAGCAGUACGACGG (ssRNA, 2'-OMe all, PS all) [LSA_ATG]	0.96 normalized Rmax
AGUGAGCCGGACUUGCCU (ssRNA, 2'-OMe all, PS all) [In3E3 5' truncation 18 nt]	0.84 normalized Rmax
GUGCAUGGAAUCACGGAGUG (ssRNA, PS all, no sugar modification) [Open_A PS only (DKLS669778)]	0.76 normalized Rmax
CCAGUGAGCCGGACUU (ssRNA, 2'-OMe all, PS all) [In3E3 3' truncation 16 nt]	0.38 normalized Rmax
GGACUUGCCU (ssRNA, 2'-OMe all, PS all) [In3E3 5' truncation 10 nt]	-0.01 normalized Rmax
CCAGUGAGCCGGAC (ssRNA, 2'-OMe all, PS all) [In3E3 3' truncation 14 nt]	0.08 normalized Rmax
CAGUGAGCCGGACUUGCC (ssRNA, 2'-OMe all, PS all) [In3E3 both-end truncation 18 nt]	0.96 normalized Rmax
CCAGUGAGCC (ssRNA, 2'-OMe all, PS all) [In3E3 3' truncation 10 nt]	-0.01 normalized Rmax
AGUGAGCCGGACUUGC (ssRNA, 2'-OMe all, PS all) [In3E3 both-end truncation 16 nt]	0.68 normalized Rmax
CAGUGAGCCGGACUUGCCU (ssRNA, 2'-OMe all, PS all) [In3E3 5' truncation 19 nt]	0.87 normalized Rmax
UGAGCCGGACUU (ssRNA, 2'-OMe all, PS all) [In3E3 both-end truncation 12 nt]	0.08 normalized Rmax
GUGAGCCGGACUUG (ssRNA, 2'-OMe all, PS all) [In3E3 both-end truncation 14 nt]	0.48 normalized Rmax
GAGCCGGACUUGCCU (ssRNA, 2'-OMe all, PS all) [In3E3 5' truncation 15 nt]	0.45 normalized Rmax
CUCAUUCCUACCGACACCCC (ssRNA, 2'-OMe all, phosphodiester) [Neg_C 2'-OMe PD (DKLS341370)]	0.08 normalized Rmax
CGUGUCAUCCGCUCUCGACU (ssRNA, 2'-OMe all, PS all) [LSA_In3E3_CT4]	0.21 normalized Rmax
